The Kd is the equilibrium constant for the complex coming apart. A lower Kd goes with higher affinity.

A value given as a limit tells only on which side of the number the result lay.

This is an account of results in PMC9170038, “Crowdsourced RNA design discovers diverse, reversible, efficient, self-contained molecular switches”.

Sequences and labels used below:
B1: Eterna 6444393 (Inverted Same State NG 3) (ssRNA)
RNA: UGUUUUGUACAUGAGGAUCACCCAUGUUAAUAUGUGGUAGUCAGAAGGCAUUGUUUGAGAUAUUAUGAGGAUAUGAUUAGUCUG
B2: Eterna 6036671 (Sensor, turn-off variant 1) (ssRNA)
RNA: GUCCUGGAUUAUCACAAGCACAUGAGGAUCACCCAUGUCAUGGGUGGAUCCCUAAAUGGGUAUUCUGCUCGUCUUAU
B3: Eterna 7666983 (Same State - Theophylline A) (ssRNA)
RNA: AAUAACAUGAGGAUCACCCAUGUAAAAGAUACCAGGGUGAUGAUCCUCCCUUGGCAGCUUACAGCUGAUCAAUAAGAUCGGCUGA
B4: Eterna 15548 (Exclusion 2) (ssRNA)
RNA: GUGUAGAUAGGAUAUGCUUUGAGCUUAUGAGAGUAUGCUCGACAUGAGGAUCACCCAUGUAGAAGGGUUUACAC
B5: Eterna 5859795 (Exclusion NG 3) (ssRNA)
RNA: ACAUGAGGAUCACCCAUGUAAUGAAGGGUACUAUACUAAACGUAGGAUAUCGAUGUAAGAUUGUACGAGAAGGACGAUUGCCUU
B6: Eterna 6120996 (Same State NG 1) (ssRNA)
RNA: GGUCCAGCAUGAGGAUAUGGCACCUUAUUGGUGCCAGAAGGCAUGUCUAUAGACAUGAGGAUCACCCAUGUAAUAAAUUGGACC
B7: Eterna 13817 (Sensor v3, turn-off variant 2) (ssRNA)
RNA: UGUACUAUGCGUGCUGACAUGCGUAGUGCAGCAGGUGUAACAUGAGGAUCACCCAUGUCCUCAUUUGCUCGUCUUAA
B8: Eterna 5956610 (Same State NG 2) (ssRNA)
RNA: UGGCUGAGUCGAGGAUAUGAUCUUCAUAUAAUAACAUGAGGAUCACCCAUGUAUAAUUACAUGGAUCAGAAGGCGACUCAGCCA
B9: Eterna 7755473 (Exclusion - Arginine A) (ssRNA)
RNA: UCCUUUGUUGCCAGUGAUGUUGGACAGGAAGGAGCGGGCAUAAGCCCAGGUAGGUCGCCUGUCAACUUUCUUAUAGCCCGAAGGU
B10: Eterna 6113948 (Same State NG 3) (ssRNA)
RNA: UGUUGUGAACAGAACAUGAGGAUCACCCAUGUGCACUCGUGUAAGGAUAUACAAUCGUAUGGAAAGUAGAAGGUACUAAUUAUG
B11: Eterna 1200 (Exclusion - Tryptophan A) (ssRNA)
RNA: UGGAGUGCCUGGUCGUCACUAUGCCAACCACGAGGACCGGUACGGCCGCCACUCGUGAGGGAUAUUCAGAAAGUGAUGUUUUUUG
B12: Eterna 6436678 (Exclusion NG 2) (ssRNA)
RNA: AAAUUAAGAAGAGGAUAUUGACAUGAGGAUCACCCAUGUAUUUGGGAGUGUUUACUGAAUUCUUACGAGAAGGCUUACGAACUU
B13: Eterna 7690517 (Same State - Theophylline B) (ssRNA)
RNA: AAUUUAUUAUCUGAUACCAGACUUUUUCUUGUUUAUAAGUCAAGUGAUGUUUGACUUUUAGUCCCUUGGCAGCAGUAUUUUUUAA
B14: Eterna 7740407 (Exclusion - Tryptophan A) (ssRNA)
RNA: AAGCAGUCACUCGAAACCAUCGAAGAUGGACGAGGACCGGUACGGCCGCCACUCGGAGUGAUGUUCCGAAGACUGCAAAAUAAAA
B15: Eterna 6395988 (Inverted Same State NG 2) (ssRNA)
RNA: GUCUGAUUGUAGAAGGUACUUAAUACUCAUGUAACAUGAGGAUCACCCAUGUAUCAACAAUAUUGUAAGGAUAUACAAAUCUCA
B16: Eterna 5982822 (Brourd's mod of Exclusion 4) (ssRNA)
RNA: GGAUCGAAUGUGAGGAUAUGCUGGUCCUUGGAUCAGCAGAAGGCACAUGAGGAUCACCCAUGUGGUAACGGUCC
B17: Eterna 7745661 (Exclusion - FMN B) (ssRNA)
RNA: AGACUACUGAUAGGAUAUAACAUCCUAGUCGUAUACCGAAAGGUAUACGAUUCCCUUCUAGUGAUGUUAGAAGGGUCGGUAGUCA
B18: Eterna 6444365 (Inverted Same State NG 3) (ssRNA)
RNA: AGAUUUGUACAUGAGGAUCACCCAUGUUAAUAGGUGGUUGUCAGAAGGCAUUAUUAGAGUUUUAAUGAGGAUAUGAAUUUACAA
B19: Eterna 5921244 (Exclusion NG 2) (ssRNA)
RNA: AUUAUAUAGGAAGGAUAUAGAAUAUUAUUUUAACAUGAGGAUCACCCAUGUAACCUUAUGUGUAGCUAGAAGGUCCAUUUGUUA
B20: Eterna 7678744 (Same State - Tryptophan A) (ssRNA)
RNA: ACAGGAUCGAAAGAUCCUGAGCAGUCAAAACGAGGACCGGUACGGCCGCCACUCGAAUAAGAGAGUGAUGUUCUCGACUGCAAAA
B21: Eterna 12785 (Exclusion 4) (ssRNA)
RNA: CUCGUGUGAGGAUAUCUAUUCCACGGACGGGAGUCUUGAAGAGAGAAGGCACAUGAGGAUCACCCAUGUAAUAA
B22: Eterna 6124659 (Same State NG 3) (ssRNA)
RNA: GAAUAUUCGUUGAACAUGAGGAUCACCCAUGUAACUUGACAUGAGGAUAUGGAUUCUAAUUGGAUCCAGAAGGUAUGAAUAUUC
B23: Eterna 10350 (Sensor for hsa-mir-208a) (ssRNA)
RNA: GCCCAUAGUAUAUGGAUACAAGCUUUUUGACAUGAGGAUCACCCAUGUACUCGUCUUAUGUGCAGUCCGUAGACUGC
B24: Eterna 5860431 (Same State NG 1) (ssRNA)
RNA: UAAUGUUAGCGAGGAUAUCGUUUAUUGAAGUUACGAGAAGGCGCUCUUCUUACAUGAGGAUCACCCAUGUCUGUUUUGCAUGAU
B25: Eterna 5997882 (Exclusion 5) (ssRNA)
RNA: CAGCCCUGAGGAUAUCCCUACUUGUACAUGAGGAUCACCCAUGUCCUCCUCCGGGCUUCGGGAGAAGGCAGGUCUC
B26: Eterna 7618834 (Exclusion - Theophylline A) (ssRNA)
RNA: AGACAUGAGGAUCACCCAUGUAGUAUGGAUACCAGAUCCAGAUUUAUCCCUUGGCAGCUGUGGUACAGCGUUGGAUCGCUCCUAG
B27: Eterna 7629678 (Same State - Theophylline A) (ssRNA)
RNA: UUCUACAUGAGGAUCACCCAUGUAAACGAUACCAGACGAGUAUUAGUCCCUUGGCAGCGUAGAGUGUCGUUUAUAGUAGGAUACC
B28: Eterna 7636321 (Exclusion - Theophylline B) (ssRNA)
RNA: CAUUAUGUAACUGAUACCAGUGUACUGACAUGAGGAUCACCCAUGUUGGGUUUUGUUGUACACCCUUGGCAGCAGAAUCAUAAUG
B29: Eterna 7639661 (Exclusion - Theophylline B) (ssRNA)
RNA: AUUUAUAGUUGUGAUACCAGACUUACAUGAGGAUCACCCAUGUUACUUAAAUGUUUUGAUGUCCCUUGGCAGCACUGUUUUUUUA
B30: Eterna 7687214 (Same State - Theophylline B) (ssRNA)
RNA: UCGUGUAUAUCGGAUACCAGUGAAAACGAUACAUGAGGAUCACCCAUGUGAGUUGAUGUACACCCUUGGCAGCUGUAUAUAUCUA
B31: Eterna 15995 (Sensor v3, turn-off variant 1) (ssRNA)
RNA: UAUUAGCAAGCAAGGUCCCACAUGAGGAUCACCCAUGUGCUCGUCUUAUAAGGUACUGUGACGAAAGUCACGGUACC
B32: Eterna 10232 (Sensor for hsa-mir-208a) (ssRNA)
RNA: AACCAACAAAUAAAACAAGCGUGCUCGUCACAUGAGGAUCACCCAUGUUUAAGCGCUAUUCCUACUUCCUCAGCGCC
B33: Eterna 10111 (Sensor for hsa-mir-208a version 2) (ssRNA)
RNA: AAUUAUUAACAUGAGGAUCACCCAUGUAAAACAUGGAUUAACAAGCCUUUUCGUUUUUGCUCGUCUUAUAUUAUUAA

The first data set concerns the target T1, MS2 coat protein, dlFG mutant (Escherichia phage MS2, UniProt P03612, del68-81insG). The experiment in a line: 4 mM Mg2+; no ligand; RNA-MaP array; 100 mM Tris-HCl pH 7.5, 80 mM KCl, 4 mM MgCl2, 0.1 mg/mL BSA, 1 mM DTT, 0.01 mg/mL yeast tRNA, 0.01% Tween-20; protein 1.5 nM to 3 uM; 37 C (Table S3). The conditions noted are these: chain copies: 2; label: tethered by stalled RNA polymerase.
On to B1, for which the Kd was determined as 60.6 nM.

In the case of B2, binding was put at a Kd of 481 nM.

For B3, the Kd worked out at 192 nM. Compared with the last molecule, the Kd is about 2.5-fold lower.

The molecule B4 registered a Kd of 88.3 nM.

On to B5, for which the Kd worked out at 45.5 nM.

Consider B6, for which binding was characterised by a dissociation constant (Kd) of 646 nM.

The molecule B7 gave a dissociation constant (Kd) of 386 nM. Compared with the last molecule, the Kd is about 1.7-fold lower.

The molecule B8 showed a Kd of 662 nM.

As to B9, the Kd was over 3000 nM.

Molecule B10 had a Kd of 133 nM. This counts as sub-micromolar.

The molecule B11 showed a Kd of over 3000 nM.

In turn, B12 displayed a Kd of 223 nM. This counts as sub-micromolar.

Molecule UUUAAUGAGGGAACUGCUUAGUUU (ssRNA) [Eterna 5 (OligoOldBControl)] displayed a Kd of over 3000 nM.

UUUGUUGCCAGUGAUGUUGGCAACUUU (ssRNA) [Eterna 11 (K4-alt7bp_control)]: the Kd is over 3000 nM.

B13: the dissociation constant Kd is over 3000 nM.

Molecule B14 came in with a Kd of over 3000 nM.

In turn, B15 registered a Kd of 576 nM.

Take B16: binding was put at a Kd of 233 nM.

Take B17: the Kd is over 3000 nM.

As to B18, the Kd was 974 nM.

B19 displayed an equilibrium dissociation constant (Kd) of 224 nM.

As to B20, the Kd is over 3000 nM.

For the molecule B21, the Kd was found to be 166 nM. In other words, the sub-micromolar range.

The molecule B22 returned an equilibrium dissociation constant (Kd) of 75.8 nM. This Kd lies about 2.2-fold lower than the previous one.

B23: binding was put at a Kd of 27.2 nM.

Consider B24, for which binding was characterised by a dissociation constant (Kd) of 68.7 nM.

The target in another data set is T1, MS2 coat protein, dlFG mutant. The experiment in a line: 4 mM Mg2+; FMN 200 uM; RNA-MaP array; 100 mM Tris-HCl pH 7.5, 80 mM KCl, 4 mM MgCl2, 0.1 mg/mL BSA, 1 mM DTT, 0.01 mg/mL yeast tRNA, 0.01% Tween-20; protein 1.5 nM to 3 uM; 37 C (Table S3). The conditions noted are these: chain copies: 2; label: tethered by stalled RNA polymerase.
Take B25: binding was put at a Kd of 18.5 nM. That is a double-digit nanomolar value.

The next data set shares this target. Put plainly: 4 mM Mg2+; theophylline 2 mM; RNA-MaP array; 100 mM Tris-HCl pH 7.5, 80 mM KCl, 4 mM MgCl2, 0.1 mg/mL BSA, 1 mM DTT, 0.01 mg/mL yeast tRNA, 0.01% Tween-20; protein 1.5 nM to 3 uM; 37 C (Table S3). The conditions noted are these: chain copies: 2; label: tethered by stalled RNA polymerase.
On to B26, for which binding was put at a Kd of 29.4 nM. This counts as double-digit nanomolar.

On to B27, for which the affinity, expressed as Kd, was 28.4 nM.

Molecule B28 showed a dissociation constant (Kd) of 90.9 nM.

In turn, B29 registered a Kd of 14 nM. This Kd lies about 6.5-fold lower than the previous one.

In the case of B30, the dissociation constant (Kd) stood at 15.1 nM.

A further data set shares this target. The experiment in a line: 4 mM Mg2+; miR-208a RNA 100 nM (AU…UUGU); RNA-MaP array; 100 mM Tris-HCl pH 7.5, 80 mM KCl, 4 mM MgCl2, 0.1 mg/mL BSA, 1 mM DTT, 0.01 mg/mL yeast tRNA, 0.01% Tween-20; protein 1.5 nM to 3 uM; 37 C (Table S3). The conditions noted are these: chain copies: 2; label: tethered by stalled RNA polymerase.
Consider B31, for which the Kd is 426 nM.

Regarding B32, the Kd is 30.4 nM.

In turn, B33 came in with an equilibrium dissociation constant (Kd) of 135 nM. Compared with the last molecule, the Kd is about 4.4-fold higher.
